Measured values: paper PMC5626551
Blank lines part the entries; values can stand above or below the substance they belong to.

Tests used:
14-3-3ε [1] = target: 14-3-3ε (UniProt P92177); assay: GST-14-3-3ε pull-down, anti-GFP blot; conditions: reference: wild type Ncd-GFP; sites S96
14-3-3ε [2] = target: 14-3-3ε (UniProt P92177); assay: MBP-14-3-3ε amylose pull-down of purified tail; conditions: reference: Ncd tail without kinase; sites S96
14-3-3ε [3] = target: 14-3-3ε (UniProt P92177); assay: MBP-14-3-3ε pull-down, anti-pS96 blot; conditions: reference: unphosphorylated Ncd tail (control not described in text); sites S96

binding against the reference (14-3-3ε [1]): weaker
Substance: Ncd (kinesin-14) (from UniProt P20480) S96A

binding against the reference (14-3-3ε [2]): stronger
Substance: Ncd (kinesin-14) tail, 58-192 (from UniProt P20480) PKD2-phosphorylated Ncd tail

binding against the reference (14-3-3ε [3]): stronger
Substance: Ncd (kinesin-14) tail, 58-192 (from UniProt P20480) Ncd tail after PKD2 and cold ATP
